In publication PMC8882189, “Identification of Nanog as a novel inhibitor of Rad51” (Cell Death & Disease, 2022):

Target: T1, His-tagged Rad51 (mouse, UniProt Q08297 1-339)
T1 construct: Rad51, mouse; The bacterial expression construct is not described; source: bacterially expressed, purified (Ni superflow beads)
T1 sequence (looked up): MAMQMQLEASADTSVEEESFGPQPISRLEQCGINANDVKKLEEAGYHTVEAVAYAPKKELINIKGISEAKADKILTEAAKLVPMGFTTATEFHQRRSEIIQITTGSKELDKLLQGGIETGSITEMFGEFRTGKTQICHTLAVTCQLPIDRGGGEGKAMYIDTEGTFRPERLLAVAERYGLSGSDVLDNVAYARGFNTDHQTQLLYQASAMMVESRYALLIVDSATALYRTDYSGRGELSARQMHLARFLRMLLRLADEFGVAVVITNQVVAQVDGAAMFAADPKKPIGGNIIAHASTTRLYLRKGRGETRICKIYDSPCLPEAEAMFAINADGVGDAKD
Assay: pull-down; purified GST-tagged Nanog or fragments on glutathione-sepharose beads, incubated with purified His-tagged Rad51 at 4 °C overnight; washed 4 times with lysis buffer; western blot with anti-Rad51
Details: both partners purified

B1: GST-tagged Nanog (natural protein, mouse, UniProt Q80Z64 1-305, looked up)
chain: MSVGLPGPHSLPSSEEASNSGNASSMPAVFHPENYSCLQGSATEMLCTEAASPRPSSEDLPLQGSPDSSTSPKQKLSSPEADKGPEEEENKVLARKQKMRTVFSQAQLCALKDRFQKQKYLSLQQMQELSSILNLSYKQVKTWFQNQRMKCKRWQKNQWLKTSNGLIQKGSAPVEYPSIHCSYPQGYLVNASGSLSMWGSQTWTNPTWSSQTWTNPTWNNQTWTNPTWSSQAWTAQSWNGQPWNAAPLHNFGEDFLQPYVQLQQNFSASDLEVNLEATRESHAHFSTPQALELFLNYSVTPPGEI
notes: Nanog, mouse; The bacterial expression construct is not described; also called full-length Nanog; FL; source: E. coli BL21, purified (Glutathione-Sepharose)
- binding result: binds
